Data set [1] concerns the target T1, full-length ParC, N-terminal 6xHis-tag (E. coli, UniProt P0AFI2 1-752).
T1 construct: ParC subunit of topoisomerase IV, E. coli, full length; also called His-ParC; ParC2; source: overexpressed, purified as previously published (Nolivos et al., 2016) with an added SEC step; not shown: His6, N-terminal, kept
T1 sequence (looked up): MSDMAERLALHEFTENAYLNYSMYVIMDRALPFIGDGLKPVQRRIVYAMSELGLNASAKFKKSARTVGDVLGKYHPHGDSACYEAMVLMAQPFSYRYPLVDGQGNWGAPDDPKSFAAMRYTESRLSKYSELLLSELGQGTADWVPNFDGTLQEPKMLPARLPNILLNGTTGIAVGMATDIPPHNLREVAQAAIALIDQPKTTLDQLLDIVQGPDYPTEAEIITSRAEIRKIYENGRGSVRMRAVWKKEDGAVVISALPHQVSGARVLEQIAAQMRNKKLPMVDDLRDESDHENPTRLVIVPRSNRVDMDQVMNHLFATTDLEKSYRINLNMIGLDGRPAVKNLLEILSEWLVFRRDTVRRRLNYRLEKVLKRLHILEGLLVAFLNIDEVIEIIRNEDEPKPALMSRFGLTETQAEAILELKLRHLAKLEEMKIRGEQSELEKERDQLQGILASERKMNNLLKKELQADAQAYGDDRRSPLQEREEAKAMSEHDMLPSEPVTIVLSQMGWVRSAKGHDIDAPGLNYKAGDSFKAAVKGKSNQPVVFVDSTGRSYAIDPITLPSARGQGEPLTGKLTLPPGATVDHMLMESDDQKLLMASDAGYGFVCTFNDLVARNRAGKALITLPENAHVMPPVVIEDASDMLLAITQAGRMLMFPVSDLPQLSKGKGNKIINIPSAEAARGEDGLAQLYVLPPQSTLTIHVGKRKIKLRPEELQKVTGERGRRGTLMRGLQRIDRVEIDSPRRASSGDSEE
In words: ITC; 100 µM LH titrated into 10 µM ParC at 25 °C; one-site model; three repeats. The following applies: both partners purified. Background: In ITC the heat of successive injections is recorded.

Data set [2] concerns the target T1, full-length ParC, N-terminal 6xHis-tag. In words: native MS; proteins buffer exchanged into 200 mM ammonium acetate pH 8.0, alone or mixed in different ratios (two or three components, with or without 50 bp DNA), 10 min on ice. The following applies: both partners purified.
Data set [3] deals with the molecule itself. The description is as above.

B1: MukB long hinge (LH; amino acid residues 568–863) (domain or fragment, E. coli, UniProt P22523 568-863, looked up)
chain: SLSDSVSNAREERMALRQEQEQLQSRIQSLMQRAPVWLAAQNSLNQLSEQCGEEFTSSQDVTEYLQQLLEREREAIVERDEVGARKNAVDEEIERLSQPGGSEDQRLNALAERFGGVLLSEIYDDVSLEDAPYFSALYGPSRHAIVVPDLSQVTEHLEGLTDCPEDLYLIEGDPQSFDDSVFSVDELEKAVVVKIADRQWRYSRFPEVPLFGRAARESRIESLHAEREVLSERFATLSFDVQKTQRLHQAFSRFIGSHLAVAFESDPEAEIRQLNSRRVELERALSNHENDNQQQR
notes: MukB, E. coli, residues 568-863: dimeric globular hinge domain and 20% of the coiled-coil region; also called LH (MBP cleaved); LH2; source: NEBExpress cells (pMAL-c5X), purified (amylose, Factor Xa cleavage, HiTrap Q XL, SEC); not shown: MBP, N-terminal, cleaved
One may read the Kd as the equilibrium constant for the complex coming apart. A lower Kd goes with tighter binding. As a reminder, the stoichiometry N is a count of units in the complex or per binding partner. Turning to B1, in data set [1], the dissociation constant (Kd) turned out to be 690 nM, the dH is -7.48 kcal/mol and the “stoichiometry N” value is 0.84. The “stoichiometry N” value in data set [2] was determined as 1 LH dimer per ParC dimer. In data set [3], the “stoichiometry N” value is 2.

(Values after paper PMC8523169, “Competitive binding of MatP and topoisomerase IV to the MukB hinge domain” (eLife, 2021).)
